Assay results published in US20070202116A1, “Treatment of micro-organism infection” (priority 2001, published 2007).
Read-outs that look alike come from different tables or passages of the source.

Key:
[1] = system: EMRSA strains, vancomycin resistant subpopulations, Linzolid resistant strains; experiment: Checkerboard MIC / FIC / FIX of vancomycin and Aurograb (Tables 9, 10); type: cell-based, S. aureus; details: for MIC In combination: VAN with Aurograb
Experimental: In order to determine the Minimum Inhibitory Concentration (MIC), the Fractional Inhibitory Concentration (FIC) and the FIX (fractional inhibitory index), the following was method was used.
The cells were diluted in Isosensitest Broth (Oxoid, UK) to give a final inoculum of […] cells per mL. […] To this was added exogenous Aurograb in the range 0.3-25 μg/ml in a checkerboard formation. A negative control series was also prepared containing Aurograb formulation buffer alone. Cultures were incubated for 48 hours at 37° C.
The minimum inhibitory concentration (MIC) was defined as the lowest concentration of agent at which no bacterial growth occurred and was determined by spectrophotometric evaluation of the lack of turbidity (growth) in culture.
Fractional inhibitory concentrations (FIC) and FIX values were calculated. Synergistic activity between the two agents was defined as an FIX value ≦0.5. Indifferent activity was defined as a value of 0.5-4, and a value of ≧4 defined antagonism.
The MIC (Alone) column indicates the minimum inhibitory concentration of the agent when administered alone. The MIC (In combination) column indicates the minimum inhibitory concentration of each drug when used in combination.

[2] = Storage stability and iv fluid compatibility of Aurograb; type: physicochemical
Experimental: The lyophilised drug is stored in glass vials at 4° C. in the dark. Overnight transport at ambient temperatures is acceptable. Avoid prolonged exposure to bright light or excessive humidity. No change in Aurograb activity after storage at 4° C. (3 months) has been observed.
After reconstitution with water, Aurograb must be stored at 4° C. and should be used within 14 hours.
Saline for iv use is compatible with reconstituted Aurograb (at a 50:50 dilution).

EMRSA-15 [3] = type: in vivo, S. aureus
Experimental: Methods: 60 female CD-1 mice (22-24 g) were given 1×10^7 cfu of EMRSA-15 as a 100 μl iv bolus.
All mice were terminated at 48 hours for culture of kidney, liver and spleen.
Results: expressed as log cfu per gram of tissue, unless the majority of mice (>5) were cleared (ie organs were culture-negative). N/A=not applicable. (Table 7)

EMRSA-15 [4] = type: in vivo, S. aureus; remark: listed apart in the source
Experimental: Method: 60 female CD-I mice (22-24 g) were given S. aureus (a fresh clinical isolate of EMRSA-15) at a dose of 8×10^7 cfu in a 100 μl iv bolus.
All mice were terminated at 48 hours for culture of kidney, liver and spleen. Mice fatalities prior to the 48 hour cull were not subject to organ colony counts.

[5] = Group 4: Aurograb 2.0 mg/kg alone iv, 48 hours
[6] = Group 5: Aurograb 0.2 mg/kg alone iv, 10 mice
[7] = Group 5: Aurograb 0.2 mg/kg alone iv, 48 hours
[8] = Group 5: Aurograb 2.0 mg/kg alone iv, 48 hours

B1: Aurograb: human genetic recombinant antibody (scFv with histidine tag, SEQ ID NO: 2) binding GrfA, a staphylococcal ABC transporter protein (protein)
scFv: MAKVQLLQSATEVKKPGASVKVSCKAYGYTFTDYGITWVRQAPGQGLEWMGWISAYNGYTNYAQKFQDRITMTTDASTSTAYMELRSLRPDDTAVLYCARDREDASLLRDGHWGQGTLVTVSSGGGGSGGGGSGGGGSGGGGSETTLTQSPGTLSLSPGERATLSCRASQIVSSSYLAWYQQKPGQAPRLLIYGASSRATGIPDRFSGSGSGTDFTLTISKLEPEDFAVYYCQHYGSSSPWTSRPRDQSDIKRAAALEHHHHHH
modifications: histidine tag; human single chain (scFv) recombinant antibody
[1]; EMRSA strain 1
  FIC: 0.006
  MIC Alone: 125 mg/L
  MIC In combination: 0.75 mg/L
[1]; EMRSA strain 1A
  FIC: 0.05
  MIC Alone: 250 mg/L
  MIC In combination: 12.5 mg/L
[1]; EMRSA strain 2
  FIC: 0.006
  MIC Alone: 125 mg/L
  MIC In combination: 0.75 mg/L
[1]; EMRSA strain 2A
  FIC: 0.05
  MIC Alone: 250 mg/L
  MIC In combination: 12.5 mg/L
[1]; EMRSA strain 3
  FIC: 0.012
  MIC Alone: 250 mg/L
  MIC In combination: 3 mg/L
[1]; EMRSA strain 4
  FIC: 0.0026
  MIC Alone: 125 mg/L
  MIC In combination: 0.325 mg/L
[1]; EMRSA strain 5
  FIC: 0.001
  MIC Alone: 250 mg/L
  MIC In combination: 0.325 mg/L
[1]; EMRSA strain 6
  FIC: 0.0026
  MIC Alone: 125 mg/L
  MIC In combination: 0.325 mg/L
[1]; EMRSA strain 7
  FIC: 0.0026
  MIC Alone: 125 mg/L
  MIC In combination: 0.325 mg/L
[1]; EMRSA strain 8
  FIC: 0.0013
  MIC Alone: 250 mg/L
  MIC In combination: 0.325 mg/L
[1]; EMRSA strain 8A
  FIC: 0.05
  MIC Alone: 250 mg/L
  MIC In combination: 12.5 mg/L
[1]; EMRSA strain 9
  FIC: 0.006
  MIC Alone: 125 mg/L
  MIC In combination: 0.75 mg/L
[1]; EMRSA strain 10
  FIC: 0.012
  MIC Alone: 125 mg/L
  MIC In combination: 1.5 mg/L
[1]; EMRSA strain 11
  FIC: 0.006
  MIC Alone: 125 mg/L
  MIC In combination: 0.75 mg/L
[1]; EMRSA strain 11A
  FIC: 0.05
  MIC Alone: 250 mg/L
  MIC In combination: 12.5 mg/L
[1]; EMRSA strain 12
  FIC: 0.0013
  MIC Alone: 250 mg/L
  MIC In combination: 0.325 mg/L
[1]; EMRSA strain 12A
  FIC: 0.003
  MIC Alone: 250 mg/L
  MIC In combination: 0.75 mg/L
[1]; EMRSA strain 13
  FIC: 0.006
  MIC Alone: 250 mg/L
  MIC In combination: 1.5 mg/L
[1]; EMRSA strain 14
  FIC: 0.012
  MIC Alone: 125 mg/L
  MIC In combination: 1.5 mg/L
[1]; EMRSA strain 15
  FIC: 0.012
  MIC Alone: 125 mg/L
  MIC In combination: 1.5 mg/L
[1]; EMRSA strain 15A
  FIC: 0.006
  MIC Alone: 250 mg/L
  MIC In combination: 0.75 mg/L
[1]; EMRSA strain 16
  FIC: 0.012
  MIC Alone: 250 mg/L
  MIC In combination: 1.5 mg/L
[1]; EMRSA strain 17
  FIC: 0.006
  MIC Alone: 250 mg/L
  MIC In combination: 0.75 mg/L
[1]; NARSA 1 (Hiramatsu)
  FIC: 0.001
  MIC Alone: 250 mg/L
  MIC In combination: 0.325 mg/L
[1]; NARSA 2 (Hiramatsu)
  FIC: 0.001
  MIC Alone: 250 mg/L
  MIC In combination: 0.325 mg/L
[1]; NARSA 12 (France)
  FIC: 0.003
  MIC Alone: 250 mg/L
  MIC In combination: 0.75 mg/L
[1]; NARSA 17 (New York)
  FIC: 0.001
  MIC Alone: 250 mg/L
  MIC In combination: 0.325 mg/L
[1]; NARSA 119 (Linezolid R)
  FIC: 0.02
  MIC Alone: 125 mg/L
  MIC In combination: 3 mg/L
[1]; NARSA 120 (Linezolid R)
  FIC: 0.02
  MIC Alone: 125 mg/L
  MIC In combination: 3 mg/L
[1]; NARSA 121 (Linezolid R)
  FIC: 0.02
  MIC Alone: 125 mg/L
  MIC In combination: 3 mg/L
[2]; left at room temperature
  Activity after reconstitution with water: slowly deteriorate
[2]; lyophilised drug, 4° C., 3 months
  Change in activity after storage: No change
[2]; reconstituted Aurograb, 50:50 dilution
  Compatibility with saline for iv use: compatible
[2]; reconstituted Aurograb, reduction in ELISA activity
  Compatibility with 20% glucose and sodium bicarbonate buffer: less compatible
EMRSA-15 [3]; Group 4: Aurograb 2.0 mg/kg alone iv, 10 mice
  Spleen, number of mice cleared: 4
EMRSA-15 [3]; [5]
  Kidney Log cfu/g of tissue: 7.30 ± 1.26 Log cfu/g of tissue
  Spleen Log cfu/g of tissue: 3.54 ± 0.61 Log cfu/g of tissue
EMRSA-15 [3]; [6]
  Liver, number of mice cleared: 2
  Spleen, number of mice cleared: 3
EMRSA-15 [3]; [7]
  Kidney Log cfu/g of tissue: 7.50 ± 1.53 Log cfu/g of tissue
  Liver Log cfu/g of tissue: 4.28 ± 1.28 Log cfu/g of tissue
  Spleen Log cfu/g of tissue: 3.91 ± 0.87 Log cfu/g of tissue
EMRSA-15 [4]; Aurograb alone 2.0 mg/kg, 10 mice, untreated group 7 deaths
  Mortality: 4 deaths
EMRSA-15 [4]; Group 5: Aurograb 2.0 mg/kg alone iv, 8×10^7 cfu
  Survivors at 24 h (n = 10): 6
EMRSA-15 [4]; [8]
  Kidney Log cfu/g tissue: 7.87 ± 1 Log cfu/g tissue
  Liver Log cfu/g tissue: 5.18 ± 0.57 Log cfu/g tissue
  Spleen Log cfu/g tissue: 5.53 ± 2.74 Log cfu/g tissue
